Here are results for seven substances from article PMC5364480.

The target of experiment [1] is FLC (UniProt Q9S7Q7). The experiment can be described thus: yeast two-hybrid. The conditions noted are these: p>0.05 (open symbol); parent: 1; read off a plot.
In experiment [2] the target is SOC1 (UniProt O64645). The experiment can be described thus: yeast two-hybrid. The conditions noted are these: p>0.05 (open symbol); parent: 1; read off a plot.
In another experiment the target is FLC, SEP3 and SOC1. The experiment can be described thus: two-hybrid; pGADT7 AD and pGBKT7 BD vectors co-transformed into yeast Y187; quantitative β-galactosidase assay with ONPG (Miller units).
Experiment [3] concerns the target SOC1 (UniProt O64645). Described as above.
A further experiment deals with …3 (Arabidopsis) (UniProt O22456). The experiment is described as above.
Chain of …3 (Arabidopsis) (O22456 whole entry): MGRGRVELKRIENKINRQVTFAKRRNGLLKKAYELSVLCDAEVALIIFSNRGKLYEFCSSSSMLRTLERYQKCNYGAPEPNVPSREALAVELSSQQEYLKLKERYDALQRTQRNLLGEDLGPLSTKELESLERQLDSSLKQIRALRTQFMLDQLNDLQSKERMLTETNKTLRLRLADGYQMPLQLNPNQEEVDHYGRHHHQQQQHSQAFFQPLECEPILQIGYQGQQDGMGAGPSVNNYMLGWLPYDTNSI
In experiment [4] the target is FLC (UniProt Q9S7Q7). The description is as above.

Chain of FLC (Q9S7Q7 whole entry): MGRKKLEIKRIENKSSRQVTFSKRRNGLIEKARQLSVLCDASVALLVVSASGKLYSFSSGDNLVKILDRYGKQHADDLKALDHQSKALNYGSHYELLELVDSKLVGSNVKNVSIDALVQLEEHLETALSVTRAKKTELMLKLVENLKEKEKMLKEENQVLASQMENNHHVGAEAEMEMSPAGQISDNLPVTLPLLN
Chain of SOC1 (O64645 whole entry): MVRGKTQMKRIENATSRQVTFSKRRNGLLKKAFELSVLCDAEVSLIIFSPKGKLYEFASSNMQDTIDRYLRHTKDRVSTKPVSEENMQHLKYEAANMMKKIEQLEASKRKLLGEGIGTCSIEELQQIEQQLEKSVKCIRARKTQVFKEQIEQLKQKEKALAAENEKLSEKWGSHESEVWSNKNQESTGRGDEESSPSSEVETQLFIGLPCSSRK

With “SHORT … PHASE (from UniProt Q9FVC1) ins220Y-221D”, the ratio to parent with FLC [1] is 1.1.

Consider SHORT … PHASE, Q9FVC1 ins80M, for which, in the experiment with SOC1 [2], the ratio to parent was 0.94.

In the case of “SVP with the unique C-domain insertion 176–196 deleted (from UniProt Q9FVC1 1-240) (natural protein)”, in the experiment with FLC, SEP3 and SOC1, the percent decrease of binding against wild-type SVP was 84 to 95%.

Consider “SVP C-domain insertion 220–221 YD (from UniProt Q9FVC1 1-240) (natural protein)”, for which the percent decrease of binding against wild-type SVP stood at 28% in the experiment with SOC1 [3] and 22% with …3 (Arabidopsis).

For “SVP Q127R (from UniProt Q9FVC1 1-240) (natural protein)”, the percent increase of binding against wild-type SVP with SOC1 [3] and with FLC [4] was 40% in each case. This substance also displayed a percent decrease of binding against wild-type SVP with …3 (Arabidopsis) of 73%.

In the case of “SVP ins80M (from UniProt Q9FVC1 1-240) (natural protein)”, the percent decrease of binding against wild-type SVP with FLC [4] and in the experiment with …3 (Arabidopsis) was 64% in each case.

Regarding “SVP Del89V (from UniProt Q9FVC1 1-240) (natural protein)”, the percent decrease of binding against wild-type SVP with SOC1 [3] turned out to be 86%; with FLC [4] it was 44%. In the experiment with …3 (Arabidopsis), this substance showed a percent increase of interaction strength against wild-type SVP of 6%.
